Article PMC6506263 (The Biochemical journal, 2019)

Columns and labels:
[1] = molecular target: TorS sensor domain (Escherichia coli) (UniProt P39453); settings: cited from earlier work
native gel or EMSA = molecular target: the molecule itself; assay: native gel or EMSA
cross-linking = molecular target: the molecule itself; assay: cross-linking

Sequence of TorS sensor domain (P39453 whole entry, the tested form may be a part): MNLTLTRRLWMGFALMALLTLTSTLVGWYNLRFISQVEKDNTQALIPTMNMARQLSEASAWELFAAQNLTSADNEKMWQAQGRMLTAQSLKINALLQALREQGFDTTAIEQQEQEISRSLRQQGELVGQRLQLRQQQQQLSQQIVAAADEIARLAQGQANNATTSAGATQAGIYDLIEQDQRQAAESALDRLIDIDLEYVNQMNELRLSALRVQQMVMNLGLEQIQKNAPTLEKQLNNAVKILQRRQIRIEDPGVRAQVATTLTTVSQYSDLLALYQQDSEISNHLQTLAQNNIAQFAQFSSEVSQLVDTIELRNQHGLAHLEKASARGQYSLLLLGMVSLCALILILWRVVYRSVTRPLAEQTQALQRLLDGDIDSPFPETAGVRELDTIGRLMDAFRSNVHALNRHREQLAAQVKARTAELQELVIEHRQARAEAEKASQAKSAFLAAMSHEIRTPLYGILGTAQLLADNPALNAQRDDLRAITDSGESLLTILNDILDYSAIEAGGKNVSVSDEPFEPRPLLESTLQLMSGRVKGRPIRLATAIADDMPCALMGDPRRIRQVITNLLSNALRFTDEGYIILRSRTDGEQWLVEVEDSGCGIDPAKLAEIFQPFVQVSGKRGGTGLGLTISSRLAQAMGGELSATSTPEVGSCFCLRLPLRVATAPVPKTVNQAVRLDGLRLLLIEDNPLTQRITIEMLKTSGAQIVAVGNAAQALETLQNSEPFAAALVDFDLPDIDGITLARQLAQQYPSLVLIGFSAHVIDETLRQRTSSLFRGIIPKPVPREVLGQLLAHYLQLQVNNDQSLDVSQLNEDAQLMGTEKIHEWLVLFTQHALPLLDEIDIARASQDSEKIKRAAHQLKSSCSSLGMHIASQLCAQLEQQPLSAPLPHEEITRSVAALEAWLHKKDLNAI

| Molecule | binding result (native gel or EMSA) | binding result (cross-linking) | other results |
| --- | --- | --- | --- |
| TorS sensor domain (from UniProt P39453) | – | – | Kd [1]: 49.6 µM |
| CusScp-short, cytoplasmic domain of CusS (amino acids 208–480) with C-terminal 6xHis tag, wild-type (domain or fragment, E. coli) MASKGHAPIRSVSRQIQNITSKDLDVRLDPQTVPIELEQLVLSFNHMIERIEDVFTRQSNFSADIAHEIRTPITNLITQTEIALSQSRSQKELEDVLYSNLEELTRMAKMVSDMLFLAQADNNQLIPEKKMLNLADEVGKVFDFFEALAEDRGVELRFVGDKCQVAGDPLMLRRALSNLLSNALRYTPTGETIVVRCQTVDHLVQVIVENPGTPIAPEHLPRLFDRFYRVDPSRQRKGEGSGIGLAIVKSIVVAHKGTVAVTSDARGTRFVITLPALE | binds | – | – |
| CusScp-long, cytoplasmic domain of CusS with C-terminal Strep-Myc-Strep-FLAG-HA-Strep tags, wild-type (domain or fragment, E. coli, UniProt P77485 208-480, looked up) KGHAPIRSVSRQIQNITSKDLDVRLDPQTVPIELEQLVLSFNHMIERIEDVFTRQSNFSADIAHEIRTPITNLITQTEIALSQSRSQKELEDVLYSNLEELTRMAKMVSDMLFLAQADNNQLIPEKKMLNLADEVGKVFDFFEALAEDRGVELRFVGDKCQVAGDPLMLRRALSNLLSNALRYTPTGETIVVRCQTVDHLVQVIVENPGTPIAPEHLPRLFDRFYRVDPSRQRKGEGSGIGLAIVKSIVVAHKGTVAVTSDARGTRFVITLPA | binds | – | – |
| N-terminal Strep-tagged CusS(39–187) wild-type, periplasmic sensor domain of the histidine kinase CusS (domain or fragment, E. coli) VKVHFAEQDINDLKEISATLERVLNHPDETQARRLMTLEDIVSGYSNVLISLADSQGKTVYHSPGAPDIREFTRDAIPDKDAQGGEVYLLSGPTMMMPGHGHGHMEHSNWRMINLPVGPLVDGKPIYTLYIALSIDFHLHYINDLMNKLEGSA | – | binds | – |
| N-terminal Strep-tagged CusS(39–187)-IIA (M133I/M135I/H145A), internal metal binding site eliminated (domain or fragment, E. coli) VKVHFAEQDINDLKEISATLERVLNHPDETQARRLMTLEDIVSGYSNVLISLADSQGKTVYHSPGAPDIREFTRDAIPDKDAQGGEVYLLSGPTIMIPGHGHGHMEASNWRMINLPVGPLVDGKPIYTLYIALSIDFHLHYINDLMNKLEGSA | – | binds | – |
